Measured values taken from patent publication US8969060B2, “Modified glucose dehydrogenase” (Ikeda Food Research Co., Ltd., priority 2011, dated 2015).
Substitutions are numbered along the chain they refer to. In names and notes the source's numbering stands. Several values for one entry are separate records, joined by “and”; a condition that tells them apart may be missing. Identical values can stand only once.

B1: N287D + D343E + K494E: modified GLD: SEQ ID NO: 1 with substitutions N287D, D343E, K494E (protein, listed as Aspergillus terreus)
chain: MLGKLSFLSALSLAVAAPLSNSTSAKYDYIVIGGGTSGLAVANRLSEDPNVNVLILEAGGSVWNNPNVTNVDGYGLAFGSDIDWQYQSVNQPYGGNLSQVLRAGKALGGTSTINGMAYTRAEDVQIDAWETIGNTGWTWKNLFPYYRKSENFTVPTKSQTSLGASYEAGAHGHEGPLDVAFTQIESNNLTTYLNRTFQGMGLPWTEDVNGGKMRGFNLYPSTVNLEEYVREDAARAYYWPYKSRPNLHVLLNTFANRIVWDGEAHDGHITASGVEITSRNGTVRVIDAEKEVIVSAGALKSPAILELSGIGNPSVLDKHNIPVKVNLPTVGENLQDQVNSHMEASGNTSISGTKAVSYPDVYDVFGDEAESVAKQIRANLKQYAADTAKANGNIMKAADLERLFEVQYDLIFKGRVPIAEVLNYPGSATSVFAEFWALLPFARGSVHIGSSNPAEFPVINPNYFMLDWDAKSYVAVAKYIRRSFESYPLSSIVEESTPGYDVIPRNASEQSWKEWVFDKNYRSNFHPVGTAAMMPREIGGVVDERLNVYGTTNVRVVDASVLPFQVCGHLVSTLYAVAERAADLIKADAGRR
modifications: SIGNAL (1)..(19)
B2: S340W: modified GLD: SEQ ID NO: 1 with substitution S340W (protein, listed as Aspergillus terreus)
chain: B1 chain with D287N, S340W, E343D, E494K
modifications: SIGNAL (1)..(19)
B3: H341C: modified GLD: SEQ ID NO: 1 with substitution H341C (protein, listed as Aspergillus terreus)
chain: B1 chain with D287N, H341C, E343D, E494K
modifications: SIGNAL (1)..(19)
B4: V338 + Q382H: modified GLD: SEQ ID NO: 1 with substitutions at V338 and Q382H (protein, listed as Aspergillus terreus)
chain: B1 chain with D287N, V338M, E343D, Q382H, E494K
modifications: SIGNAL (1)..(19)
B5: D343E + L562H: modified GLD: SEQ ID NO: 1 with substitutions D343E, L562H (protein, listed as Aspergillus terreus)
chain: B1 chain with D287N, E494K, L562H
modifications: SIGNAL (1)..(19)
B6: H341L: modified GLD: SEQ ID NO: 1 with substitution H341L (protein, listed as Aspergillus terreus)
chain: B1 chain with D287N, H341L, E343D, E494K
modifications: SIGNAL (1)..(19)
B7: S340N: modified GLD: SEQ ID NO: 1 with substitution S340N (protein, listed as Aspergillus terreus)
chain: B1 chain with D287N, S340N, E343D, E494K
modifications: SIGNAL (1)..(19)
B8: H341R + G499S: modified GLD: SEQ ID NO: 1 with substitutions H341R, G499S (protein, listed as Aspergillus terreus)
chain: B1 chain with D287N, H341R, E343D, E494K, G499S
modifications: SIGNAL (1)..(19)
B9: D343N + S490C: modified GLD: SEQ ID NO: 1 with substitutions D343N, S490C (protein, listed as Aspergillus terreus)
chain: B1 chain with D287N, E343N, S490C, E494K
modifications: SIGNAL (1)..(19)
B10: L250V + S340G + D399N: modified GLD: SEQ ID NO: 1 with substitutions L250V, S340G, D399N (protein, listed as Aspergillus terreus)
chain: B1 chain with L250V, D287N, S340G, E343D, D399N, E494K
modifications: SIGNAL (1)..(19)
B11: S340G: modified GLD: SEQ ID NO: 1 with substitution S340G (protein, listed as Aspergillus terreus)
chain: B1 chain with D287N, S340G, E343D, E494K
modifications: SIGNAL (1)..(19)
B12: H341A: modified GLD: SEQ ID NO: 1 with substitution H341A (protein, listed as Aspergillus terreus)
chain: B1 chain with D287N, H341A, E343D, E494K
modifications: SIGNAL (1)..(19)
B13: G352E: modified GLD: SEQ ID NO: 1 with substitution G352E (protein, listed as Aspergillus terreus)
chain: B1 chain with D287N, E343D, G352E, E494K
modifications: SIGNAL (1)..(19)
B14: V431M: modified GLD: SEQ ID NO: 1 with substitution V431M (protein, listed as Aspergillus terreus)
chain: B1 chain with D287N, E343D, V431M, E494K
modifications: SIGNAL (1)..(19)
B15: S272T + A298V + A369T: modified GLD: SEQ ID NO: 1 with substitutions S272T, A298V, A369T (protein, listed as Aspergillus terreus)
chain: B1 chain with S272T, D287N, A298V, E343D, A369T, E494K
modifications: SIGNAL (1)..(19)
B16: G426S + A578V: modified GLD: SEQ ID NO: 1 with substitutions G426S, A578V (protein, listed as Aspergillus terreus)
chain: B1 chain with D287N, E343D, G426S, E494K, A578V
modifications: SIGNAL (1)..(19)
B17: S340V: modified GLD: SEQ ID NO: 1 with substitution S340V (protein, listed as Aspergillus terreus)
chain: B1 chain with D287N, S340V, E343D, E494K
modifications: SIGNAL (1)..(19)
B18: D343N: modified GLD: SEQ ID NO: 1 with substitution D343N (protein, listed as Aspergillus terreus)
chain: B1 chain with D287N, E343N, E494K
modifications: SIGNAL (1)..(19)
B19: H341D: modified GLD: SEQ ID NO: 1 with substitution H341D (protein, listed as Aspergillus terreus)
chain: B1 chain with D287N, H341D, E343D, E494K
modifications: SIGNAL (1)..(19)
B20: M342L + K354N: modified GLD: SEQ ID NO: 1 with substitutions M342L, K354N (protein, listed as Aspergillus terreus)
chain: B1 chain with D287N, M342L, E343D, K354N, E494K
modifications: SIGNAL (1)..(19)

Assays:
[1] = Relative enzymatic activity of GLD (DCIP/1-m-PMS, plate reader, yeast culture supernatant) with 1,10-phenanthroline present; type: biochemical; conditions: for Relative Activity: random-mutation mutants, sample value with inhibitor at 1 mM / blank value, inhibitor not named in Table 1; for Relative Activity [%] 1,10-Phenanthroline: site-specific mutants, inhibitor final concentration 1 mM
Experimental: (§1) The susceptibility defined in the present specification is evaluated in terms of a relative activity that is determined in a system wherein the inhibitor coexists or not. The relative activity is derived from a relative value (%) of an enzymatic activity (a sample value) obtained with the addition of the inhibitor in the determination of the enzymatic activity described in the present specification as compared with an enzymatic activity (a blank value) as “100%” obtained without the addition of the inhibitor in the same determination. Thus, the higher the relative activity is, the less the susceptibility to the inhibitor is (or the more the susceptibility to the inhibitor is reduced), vice versa.
(§2) The enzymatic activity is determined in the following manner in Examples 3 and 6 wherein a plate reader (Japan Molecular Device Corporation, SpectraMax Plus384) is used. Thus, culture supernatant that had been diluted in advance with an appropriate magnification is added to a 96-well microplate with an amount of 100 μl per well. A reagent for the determination of the enzymatic activity comprising phosphate buffer (pH 7.0), 1.0 M D-glucose, 3 mM DCIP, 3 mM 1-m-PMS and methanol with a volume ratio of 0.1:1:0.14:0.2:0.06 is added to the 96-well microplate with an amount of 100 μl per well, and a change in the absorbance of DCIP at 600 nm (ΔABS/min) is then determined. The enzymatic activity can be calculated by conversion in proportion to a change in the absorbance of an enzyme solution for which the enzymatic activity has already been known by the above-mentioned activity determination procedure using the spectrophotometer.
(§3) In the following examples, a value of the enzymatic activity determined by the spectrometer or plate reader using the above reagent composition is considered as a blank value. On the other hand, a sample value is determined using a methanol solution comprising the inhibitor such as 1,10-phenanthroline or proflavin hydrochloride at a final concentration of 1 mM instead of the methanol. Enzymatic activity (unit/mL)=(−ΔABS/16.3)×3.0/0.05×(Dilution ratio of enzyme) [Equation 1]
Into each well of a 96-well microplate (manufactured by Nunc, Inc.), a YPD medium containing 125 μL of 1.0% (w/v) yeast extract (manufactured by BD), 2.0% (w/v) tryptone (manufactured by BD), 2.0% (w/v) glucose (manufactured by Wako Pure Chemical Industries, Ltd.) was dispensed, and the transformant colonies obtained in Example 2 were inoculated thereinto one by one.
After shaking culture at 30° C. and 1,000 rpm for 24 hours, the culture mixture was centrifuged and the supernatant was collected.
According to the above-mentioned method for the determination of enzymatic activity, a blank value and a sample value were determined using a plate reader, and the relative activity (%) was obtained by dividing the sample value by the blank value.

[2] = Relative enzymatic activity of GLD (DCIP/1-m-PMS, plate reader, yeast culture supernatant) with proflavin hydrochloride present; type: biochemical; conditions: site-specific mutants, inhibitor final concentration 1 mM
Experimental: as §1, §2, §3

Row | Molecule | Relative Activity [1] | Relative Activity [%] 1,10-Phenanthroline [1] [%] | Relative Activity [%] Proflavin hydrochloride [2] [%]
1 | B1 | 52.2% |  | 
2 | B2 |  | 97.7 | 75.7
3 | B3 |  | 95.4 | 67.7
4 | B4 | 60.0% |  | 
5 | B5 | 51.8% |  | 
6 | B6 | 69.7% | 92.2 | 66.9
7 | B7 |  | 82.0 | 49.9
8 | B8 | 71.9% |  | 
9 | B9 | 61.8% and 71.1% |  | 
10 | B10 | 43.4% |  | 
11 | B11 |  | 54.6 | 49.5
12 | B12 |  | 95.1 | 75.8
13 | B13 | 70.4% | 91.7 | 36.3
14 | B14 | 44.8% |  | 
15 | B15 | 68.6% |  | 
16 | B16 | 65.7% |  | 
17 | B17 |  | 84.2 | 54.9
18 | B18 | 65.2% |  | 
19 | B19 |  | 90.0 | 64.5
20 | B20 | 69.8% |  | 
